Measured values published in patent US20190382504A1.

How the values were obtained:
Experiment in all cases: FACS, peptide-pulsed T2 cells
[1] = molecular target: ESO157 A3 peptide (…)/HLA-A*02:01 complex on T2 cells (human)
[2] = molecular target: HLA-A*02:01 on T2 cells without peptide loading (human)
[3] = molecular target: ESO157 A7 peptide (…)/HLA-A*02:01 complex on T2 cells (human)
[4] = molecular target: ESO157 A4 peptide (…)/HLA-A*02:01 complex on T2 cells (human)
[5] = molecular target: ESO157 A8 peptide (…)/HLA-A*02:01 complex on T2 cells (human)
[6] = molecular target: ESO157 wild type peptide (…)/HLA-A*02:01 complex on cells (human)
[7] = molecular target: ESO157 A6 peptide (…)/HLA-A*02:01 complex on T2 cells (human)
[8] = molecular target: ESO157 A1 peptide (…)/HLA-A*02:01 complex on T2 cells (human)
[9] = molecular target: ESO157 A5 peptide (…)/HLA-A*02:01 complex on T2 cells (human)

Substance | MFI [1] | MFI [2] | MFI [3] | MFI [4] | MFI [5] | MFI [6] | MFI [7] | MFI [8] | MFI [9]
KO7 helper phage | 100 | 97 | 84 | 97 | 94 | 136 | 91 | 92 | 101
antibody BB7.2 | 66100 | 53100 | 72900 | 60300 | 75000 | 76000 | 55800 | 67000 | 59000
